According to patent US20030175270:

Target: JAK2 immunoprecipitated from BMMC lysates (tyrosine-phosphorylated), Q62120
Sequence (Q62120 whole entry): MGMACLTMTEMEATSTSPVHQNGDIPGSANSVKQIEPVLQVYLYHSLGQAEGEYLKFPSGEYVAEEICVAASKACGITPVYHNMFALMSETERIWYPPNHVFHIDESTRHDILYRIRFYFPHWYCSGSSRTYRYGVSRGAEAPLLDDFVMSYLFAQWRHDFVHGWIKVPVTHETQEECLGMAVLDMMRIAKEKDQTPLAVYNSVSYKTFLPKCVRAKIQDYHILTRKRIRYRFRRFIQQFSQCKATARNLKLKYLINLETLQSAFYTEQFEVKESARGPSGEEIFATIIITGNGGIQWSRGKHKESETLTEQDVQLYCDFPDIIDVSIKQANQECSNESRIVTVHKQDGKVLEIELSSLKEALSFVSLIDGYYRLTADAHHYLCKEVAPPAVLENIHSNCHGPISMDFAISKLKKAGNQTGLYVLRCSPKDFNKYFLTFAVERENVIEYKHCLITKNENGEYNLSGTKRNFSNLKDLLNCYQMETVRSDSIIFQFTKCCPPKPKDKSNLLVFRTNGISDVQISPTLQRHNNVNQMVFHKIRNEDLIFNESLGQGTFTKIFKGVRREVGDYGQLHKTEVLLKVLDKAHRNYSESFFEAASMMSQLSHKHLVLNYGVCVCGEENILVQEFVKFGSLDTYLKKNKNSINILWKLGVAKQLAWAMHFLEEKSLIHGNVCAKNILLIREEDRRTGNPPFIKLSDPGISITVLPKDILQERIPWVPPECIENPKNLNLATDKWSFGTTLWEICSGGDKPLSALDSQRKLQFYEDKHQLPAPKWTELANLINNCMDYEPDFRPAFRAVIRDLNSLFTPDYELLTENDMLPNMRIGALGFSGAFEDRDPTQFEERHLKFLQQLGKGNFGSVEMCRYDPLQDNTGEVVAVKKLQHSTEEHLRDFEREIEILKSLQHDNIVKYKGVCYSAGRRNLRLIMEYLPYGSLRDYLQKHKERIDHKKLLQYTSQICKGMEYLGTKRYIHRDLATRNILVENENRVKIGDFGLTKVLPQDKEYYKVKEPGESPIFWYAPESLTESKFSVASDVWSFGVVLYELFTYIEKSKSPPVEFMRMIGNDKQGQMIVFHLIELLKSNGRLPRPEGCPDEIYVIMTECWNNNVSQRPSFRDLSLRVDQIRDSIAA

B1: bacterial lambda PTPase (protein)
chain: MRYYEKIDGSKYRNIWVVGDLHGCYTNLMNKLDTIGFDNKKDLLISVGDLVDRGAENVECLELITFPWFRAVRGNHEQMMIDGLSERGNVNHWLLNGGGWFFNLDYDKEILAKALAHKADELPLIIELVSKDKKYVICHADYPFDEYEFGKPVDHQQVIWNRERISNSQNGIVKEIKGADTFIFGHTPAVKPLKFANQMYIDTGAVFCGNLTLIQVQGEGA
- tyrosine dephosphorylation in vitro (phosphatase assay): the human non-receptor tyrosine PTPase TC-PTP and the bacterial lambda PTPase did not dephosphorylate JAK2 in vitro

B2: human non-receptor tyrosine PTPase TC-PTP (protein)
chain: MPTTIEREFEELDTQRRWQPLYLEIRNESHDYPHRVAKFPENRNRNRYRDVSPYDHSRVKLQNAENDYINASLVDIEEAQRSYILTQGPLPNTCCHFWLMVWQQKTKAVVMLNRIVEKESVKCAQYWPTDDQEMLFKETGFSVKLLSEDVKSYYTVHLLQLENINSGETRTISHFHYTTWPDFGVPESPASFLNFLFKVRESGSLNPDHGPAVIHCSAGIGRSGTFSLVDTCLVLMEKGDDINIKQVLLNMRKYRMGLIQTPDQLRFSYMAIIEGAKCIKGDSSIQKRWKELSKEDLSPAFDHSPNKIMTEKYNGNR
- tyrosine dephosphorylation in vitro (phosphatase assay): the human non-receptor tyrosine PTPase TC-PTP and the bacterial lambda PTPase did not dephosphorylate JAK2 in vitro
